Assay: yeast display, Sf9 membrane polyspecificity reagent, FACS + sequencing; frameworks hold sequencing errors
Method in brief: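 Sorting gates, low and high (top ~1%), were placed on anti-HA fluorescence to track expression and on streptavidin fluorescence to track reagent binding. A clone's polyreactivity label is taken from the gate it came out of. The reagent was 10% biotinylated, detergent-solubilized Sf9 membrane, applied for 1 hour at 4 °C to galactose-induced yeast display cells.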

Sequence | polyreactivity (PSR sort gate)
QVHLVESGGGLVQAGGSLRLSSAASGSTFPVYAMGWYRQAPGKERELVASISSGGSTYYADSVQGRFTISRDNAKNSVYFQKNSLKPEDTAVYYCAKDPWVDSFVIYDDWGQGTEVTVSS | low polyreactivity
QVHLVESGGGLVQAGGSLRLSSAASGSTFYKNAMGWYRQAPGKERELVAGISRRGGRTYYADSVKGRFTISRDNANNTVYLQMNSLKPEDTAVYYCNTGHEEDEYDYWGQGTQVTVSS | low polyreactivity
QVHLVESGGGLVQAGGSLRLSSAAYGRTFKYNAMGWYRQAPGKRKELVAAISSGGSTYYADSVKGRFTISRDNAKKTVYFQMNSLKPEDTAVYYCAVRNTKSYWFGYWGQGTQVTVSS | high polyreactivity
QVHLVESGGGLVQAGGSLRLTCAASGITLDGNAMGWYRQAPGKERELVAAITSGGGTNYADSVKGRFTISRDNAKNTVYLQMNSLKPVDTAVYYCCADKPNDGVGRLYDYWGQGTQVTVSS | low polyreactivity
QVHLVESGGGLVQAGGSLRLTCAASGLTFIRYAMGCYRQAPGKERELVAAISSYGGTTYYADSVKGRFTISRDKAKNTVYLQMISLKPEDTSVYYCAAVLTYYRGSTWTFSGFAYDHWGQGTQVTVSS | high polyreactivity
QVHLVESGGGLVQAGGSRRLSCAASGITYRFYTMGWYRQAPGKEREFVAAITYGVGRTDYADSVKGRFTISRDNAKNTVYLQMNSLNPEDTAVYYCAATWGYGYDYWGQGTQVTVSS | high polyreactivity
QVHLVESGGGLVQAGGSRRLSCAASGRTVARPAMGWYRQAPGKERELVATITIGGRTYYADSVKGRFTISRDNAKNTVYLQMNSLKPEDTAVYYCAKRISGYRGDYWGQGTQVTVSS | high polyreactivity
QVHLVESGGGLVQAGGTLRLRCAASGSIFCCNAMGWYRQAPGKERELVAAISTSGGTTYYADSVKGRFTISRDNAKNTVFLQMHSLKPEDTAVYYCAADVYSSRYLYDYWGHGTQVTVSS | low polyreactivity
QVHLVESGGGLVQAGRSLRLSCAASGFIFKPYAMVRYRQAPGKERELVAAITVNGGTTYYADSVKARFTISRDNAKNTVYLQMNSLKPEDTAVYYCNRGRPGGPSWYHYDYWGQGTQVTVSS | high polyreactivity
QVHLVESGGGLVQEGGSLRLSCAASGFTFDSYAMGWYRQAPGKERELVASISSSGSTNYADSVKGRFTISRDNAKNTVYLQMNSLKPEDTGVYYCAAESRYPFIYEYWGQGTQVTVSS | low polyreactivity
QVHLVESGGGLVQVGGSLRLSCAASGSIFRWYAMGWYRQAPGKERELVAAISSSVGRTYYADSVKGRFTISRDNAKNTVYLQMNSLKPEDTAVYYCAVRYSVVYGTYYYWGQGTKVTVSS | high polyreactivity
QVHLVESGGRLVQAGGSLRLSCAASGRTVVDNAMGWYRQAPGKESQLVAAISSGGTTNFADSVKGRFTISRDIAKNTVYLQMNSLKPEDTAVFYCNTVATYLRSGYGNWGQGTQVTVSS | low polyreactivity
QVHLVESGGVLVQAGGRHRISCAASGRTFIQNAMGWYRQAPGKERELVAAISWSGGSTYYADSVKGRFTISRDNAKNTVYLQMNSLKPADTAVSYCAAETYDYLFHTYEYWGQATQVTVSS | low polyreactivity
QVHLVESGRGLVQAGGSLRLSCAASGRTLYRYAMGWYRQAPGKERELVAAINQSGGRTYYADSVKGRFTISRDNAKNTVYFQMNSLKPEDTAVYYCAASPVRVGKVIDGRDYWGQGTQVTVSS | high polyreactivity
QVHLVESGRGLVQAGGSLRLSCAASGSIFESYAIGWYRQAPGKERELVAAISGNSDSTYYADSVKGRFTISRDNEKNTVYLQMNSLKPEDTAVYYCAKEGGNGYDYWGQGTQVTVSS | low polyreactivity
QVHLVESGRGLVQAGRSLRLSCAASGLTFDWYDMGCYRQAPGKERELVAAITSVGSTYYADSVKGRFTISRDNAKKTVYLQMNSLKPEDTAVYYCGVEGVIWSFWPYEYWGQGTQVTVSS | high polyreactivity
QVHLVESGVGLVQAGGSLRLSCAASGFIFYYNAMGWYRQAPGKERELVAAISRTGGSTYYADSVKGRFTISRDNAKNTVYLQMNSLKPEDTAVYYCAAVGSPNRRPSRWEGSWGQGTQVTVSS | high polyreactivity
QVHLVESGVGLVQAGGTLRLSCAASGRTFRVYALVWYRQAPGKERELVAAITWNGGSTYYADSVKGRFTISRDNAKNNVYLQMNRLKPEDTAVYYSAAARYAYNIWSGAYDYWGQGTQVTVSS | high polyreactivity
QVHLVESRGRLVQAGGSLRLSCAASGSIFEPNAMGWYRQAPGKEREFVAAISGSGGSTYYADSVKARFTISRDNAKNTVYLQMNSRNPEDTAVYYCATRGKRSYFRTFYYWGQATQVTVSS | high polyreactivity
QVHLVESVGGLFQAGGSLRLSCAPSGYIYVANVKGWYRQAPGKERELVAAINRRTGITYYADSVKGRCTNSRDNAKNTVNLQMNSLKTEDTAVYYCAALAQSTTYTRPYDYWGQGTQVTVSS | low polyreactivity
QVHLVESVGGLVQAGGSLRLSCAASGRIFRYYAMGWYRQAPVKAWELVATISQRGGTYYADSVKGRFTISRDNAKNTVYLQMNSLKPEDTAVYYCAARINTYRSYYPSSRSDYWGQGTQVTVSS | high polyreactivity
QVHLVESWGGLVQAGGSLRLICAASGSTFYANAMGWYRQAPGKERQLVAAITRSRRSTYYADSVKGRFTISRDNAKNTVYLQMNSLKRVDTAVYYFSARRVRDRVRYDYCGQGTQVTVSS | high polyreactivity

Sequence | polyreactivity (PSR sort gate)
QVHLVESWGGLVQAGGSLRLSCAASGSIFYYYAMGWYRLAPGKERELVAAITSGGSTYYADSVKGRFTISRDNAKNTVYLQMNSLKPEDTAVYYCAAVFYAAYLRYVWYSYDYWGQGTQVTVSS | low polyreactivity
QVHLVETGGGLVHAGGSLRLSCASSGNIFSWYAMGWYRQAPGKEREFVAVIRGRGGSTYYADSVKGRFTISRDNAKNNVYLLMKSLKPEDTAVYYCAIRGFVLYFYRSGYGYGYWGQGTQVTVSS | low polyreactivity
QVHLVETGGGLVQEGGSLRLSCAATGSNFGQNAMGWYRQAPGKERELVAAITRRGVATYYADSVKGRFTISRDNAKNTVYLQLISLKPEDTAVYYCAKRYHPNSPYDYWGQGTQVTVSS | low polyreactivity
QVHLVQSGGGLVQAGGSLRLSCAASGRTFYIYAMGCYRQAPGKERELVAAISWRGGSTYYANSVKGRFTISLDHAKYTVYLQMNSLKPEDTAVYYCAAEGAHVKWYRNWWEYDDWGQGTQVTVSS | high polyreactivity
QVHLVVSGGGLVQAGGSLRLSCAASGRTFIRYAMGWYRQAPWKESELVAAITQSGGRTYYADSVKGRFTISRDNAKNTVYLQMNSLIPEDTAVYYCAAIGRYAFYYPRDYWGQGTQVTVSS | high polyreactivity
QVKLQESGGGLVQAGGSLRLSCAASGNISVTGFMGLYRQAPGKERELVASIGIGGTTYYADSVKGRFSISRDNAKNTVYLQMNSLKPEDTAVYYCAGIYLYYAYSYWGQGTQVTVSS | low polyreactivity
QVKLVDSGGGLVQAGGSLRLSCAASGSIFAGYAMGWYRQEPGKVRELVAAINASGGSTYYADSVKGRFTISRDNAKNTVYLQMNSLKPEDTAVYYCNRVYKRYYIGGYDYWGQGTQLTVSS | high polyreactivity
QVKLVESAGGLVQAGGSHRLSCAASARIFRGNTRGWYRQAPGKEREVVARITWNGGTTNYADSVKGRFTISRDYAKNTVSLQMNSLKPVDTAVYYCAKGSLRQITGILSWYYYWRQGTQVTVSS | high polyreactivity
QVKLVESAGGLVQAGGSLRLSCPASGSTFPKYPMGWSRQEPGKERELVAAITWRGGSTYYADSVKGRFTISRDNAKNTVYLQMISLNPEDTAVYYCAAVPYYPSRMDYWGQGTQVTVSS | low polyreactivity
QVKLVESGGCLVQAGGSLRLSCAASGRTIGYYGMGWYRQAPGKARELVAAITGSGGSTYYADSVKGRFTISRDNSKNTVYLQMNILIPEDTAVYYCAATYLSRWTLYDYWGQGTQVTVSS | high polyreactivity
QVKLVESGGGLVMAGGSLRLSCAASGRTFWIYAMGRYRQAPGKERELVAAISQSSSITYYADSVKRRFTFSRDNAKNTVYLQMNSLKPEDTEGYYCNSDVLRYQGSWLEYWGQGTQVTVSS | low polyreactivity
QVKLVESGGGLVQAGCSLRISCAASGITFKNYAMGWYRQAHGKERELVAAIRSIAGRTNYADSVKGRFTISRDYANNTVYLKMNSLKPEDTAVYYFTAANRGQRSDYRGYYYWGQGTQVTVSS | high polyreactivity
QVKLVESGGGLVQAGCSLRLSCAASGRIYGGYTMGRYRPAPGKERELVAAITGSGGRTYFADSVKGRFTISRDNAKNTVYLHMNILTPEDTAVYYCNTVYPYRYYWGHGTQVTVSS | high polyreactivity
QVKLVESGGGLVQAGGRLRLSCDAYGIILVGYDMGWYRPAPGKERELVATISSGSSTYYEDSVKGRFTISRDNAKNTVYLQMNSLKPEDTAVYYCNADHAGPYWRFHDDDYWGQGTKVTVSS | low polyreactivity
QVKLVESGGGLVQAGGSLRLSCAASGFIFGDNAMGWYRQAPGKVREFVAAINSGSRTSYADSVKGRFTISRDNAKNTVYLQMNSLKPEDTAVYYCAAESVSSGDYASRYDYWGQGTQVTVSS | low polyreactivity
QVKLVESGGGLVQAGGSLRLSCAASGFIFLRYGMGWYRQAPGKERELVASIDSTGGSTYADSVKGRFTISRDNAKNTVYLKMNSLKPVDTAVYFCAAAFYIVSERDYCGQGTQVTVSS | low polyreactivity
QVKLVESGGGLVQAGGSLRLSCAASGFTFNRYAMGWYRQAPGKERELVAAISWSGGSTYYADSVKGRFTISRDNAKNTVYLQMNSLKPEDTAVYYCAAATAYYRYRGGYDYWGQGTQVTVSS | high polyreactivity
QVKLVESGGGLVQAGGSLRLSCAASGFTFSYYAMGWYRQAPGKERELVAAISYSGSATYYADSVKVRFTISRDNAKNTVYLQLNSLIPEDTAVYYCNARGATRGLTAYTYDSWGQGTQVTVSS | high polyreactivity
QVKLVESGGGLVQAGGSLRLSCAASGIIFEVYAMGWYRQAPGKERELVAAITLSSGGITYYADSVKGRFTISRDYAKNTVYLQMNSLKPEDTAVYYCAAQHDNFSGPFEYWGQGTQVTVSS | low polyreactivity
QVKLVESGGGLVQAGGSLRLSCAASGITFYINAMGWYRQAPGKERELVAVIDSRGSSTFYADSVKGRFTISRDNAKNTVYLQMNSLKPEDTAVYYCAVEGYPGRYRDPGDLYYYWGQGTQVTLSS | low polyreactivity
QVKLVESGGGLVQAGGSLRLSCAASGRIFDRYAMGWYRQAPGKERELVAAITSRADRTYYADSVKGRFTISRDIAKNTVYLQMNSLKPEDTAVYYCNRRRRHYSYYSTLSYDYWGQGTQVTVSS | high polyreactivity

— the nanobody polyreactivity screen of Harvey et al. (2022)
